In publication PMC7448930:

Molecular target: HCoV-19 fusion core (HR1 and HR2 linked with a peptide linker) (HCoV-19)
Test: crystal structure; HR1 and HR2 linked on one chain by a peptide linker; 1.5 Å; one HR1/HR2 complex in the asymmetric unit, trimer by symmetry operations

**Q.** How did the stoichiometry N turn out when “HCoV-19 fusion core (HR1 and HR2 linked with a peptide linker) (domain or fragment)” was run?
**A.** 3
